{"source": "patent US20110008829", "key": {"[1]": {"molecular_target": "T1, HMGS with 6 SH3 peptide ligands recombined to the C-terminus, P54839", "T1 sequence (P54839 whole entry, looked up)": "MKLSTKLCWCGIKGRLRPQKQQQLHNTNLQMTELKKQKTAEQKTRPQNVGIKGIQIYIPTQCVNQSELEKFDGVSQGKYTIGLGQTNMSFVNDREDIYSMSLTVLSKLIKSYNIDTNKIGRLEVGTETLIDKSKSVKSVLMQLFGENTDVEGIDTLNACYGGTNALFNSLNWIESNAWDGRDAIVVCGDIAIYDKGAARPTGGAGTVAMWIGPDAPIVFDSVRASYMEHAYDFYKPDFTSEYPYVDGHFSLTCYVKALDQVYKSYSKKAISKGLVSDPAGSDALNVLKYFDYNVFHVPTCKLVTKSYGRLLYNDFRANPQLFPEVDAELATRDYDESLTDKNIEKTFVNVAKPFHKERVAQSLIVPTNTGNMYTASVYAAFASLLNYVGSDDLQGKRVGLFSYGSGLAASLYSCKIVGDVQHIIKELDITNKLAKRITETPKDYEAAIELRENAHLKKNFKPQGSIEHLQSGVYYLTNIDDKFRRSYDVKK"}, "[2]": {"molecular_target": "T2, HMGS with 12 SH3 peptide ligands recombined to the C-terminus, P54839", "T2 sequence (P54839 whole entry, looked up)": "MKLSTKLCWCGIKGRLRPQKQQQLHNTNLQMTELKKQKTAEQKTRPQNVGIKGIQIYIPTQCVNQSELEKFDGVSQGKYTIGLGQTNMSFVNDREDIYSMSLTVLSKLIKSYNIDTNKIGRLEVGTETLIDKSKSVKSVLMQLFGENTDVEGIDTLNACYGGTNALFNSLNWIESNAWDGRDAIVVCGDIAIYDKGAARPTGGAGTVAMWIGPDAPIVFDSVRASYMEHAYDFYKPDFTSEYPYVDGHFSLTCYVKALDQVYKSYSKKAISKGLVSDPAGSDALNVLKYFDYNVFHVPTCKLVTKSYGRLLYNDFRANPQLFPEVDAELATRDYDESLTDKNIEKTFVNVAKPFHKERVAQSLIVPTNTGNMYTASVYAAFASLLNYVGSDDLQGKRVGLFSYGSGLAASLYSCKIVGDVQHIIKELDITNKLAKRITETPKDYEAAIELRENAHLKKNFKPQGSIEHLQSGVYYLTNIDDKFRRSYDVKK"}}}
{"protein": "HMGR with an N-terminal SH3 domain (protein) AEYVRALFDFNGNDEEDLPFKKGDILRIRDKPEEQWWNAEDSEGKRGMIPVPYVEKYRVLTNKTVISGSKVKSLSSAQSSSSGPSSSSEEDDSRDIESLDKKIRPLEELEALLSSGNTKQLKNKEVAALVIHGKLPLYALEKKLGDTTRAVAVRRKALSILAEAPVLASDRLPYKNYDYDRVFGACCENVIGYMPLPVGVIGPLVIDGTSYHIPMATTEGCLVASAMRGCKAINAGGGATTVLTKDGMTRGPVVRFPTLKRSGACKIWLDSEEGQNAIKKAFNSTSRFARLQHIQTCLAGDLLFMRFRTTTGDAMGMNMISKGVEYSLKQMVEEYGWEDMEVVSVSGNYCTDKKPAAINWIEGRGKSVVAEATIPGDVVRKVLKSDVSALVELNIAKNLVGSAMAGSVGGFNAHAANLVTAVFLALGQDPAQNVESSNCITLMKEVDGDLRISVSMPSIEVGTIGGGTVLEPQGAMLDLLGVRGPHATAPGTNARQLARIVACAVLAGELSLCAALAAGHLVQSHMTHNRKPAEPTKPNNLDATDINRLKDGSVTCIKS", "values": [{"measurement": "mevalonate production in E. coli, improvement", "setting": "[1]", "result": "mevalonate production reached a maximum ˜10-fold improvement with 6 possible interactions"}, {"measurement": "mevalonate production in E. coli, improvement", "setting": "[2]", "result": "reduced somewhat (to 7-fold) when the number of possible interactions was further increased"}]}
